# Reference: patent US20250152742A1, “COMPOSITIONS AND METHODS FOR NEUROLOGICAL DISEASES” (Trames Bio, Inc., priority 2022, published 2025)
# B1: CODA409: engineered receptor: Y210W in SEQ ID NO: 33 (protein)
# chain: MRCSPGGVWLALAASLLHVSLQGEFQRKLYKELVKNYNPLERPVANDSQPLTVYFSLSLLQIMDVDEKNQVLTTNIWLQMSWTDHYLQWNVSEYPGVKTVRFPDGQIWKPDILLYNSADERFDATFHTNVLVNSSGHCQYLPPGIFKSSCPMDLKNFPMDVQTCKLKFGSWSYGGWSLDLQMQEADISGYIPNGEWDLVGIPGKRSERFWECCKEPYPDVTFTVTMRRRMGYYLIQMYIPSLLIVILSWISFWINMDAAPARVGLGITTVLTMTTQSSGSRASLPKVSYVKAIDIWMAVCLLFVFSALLEYAAVNFVSRQHKELLRFRRKRRHHKSPMLNLFQEDEAGEGRFNFSAYGMGPACLQAKDGISVKGANNSNTTNPPPAPSKSPEEMRKLFIQRAKKIDKISRIGFPMAFLIFNMFYWIIYKIVRREDVHNQ
# modifications: synthetic sequence of chimeric LGIC
# B2: CODA534: engineered receptor: L131S, S172D in SEQ ID NO: 33 (protein)
# chain: MRCSPGGVWLALAASLLHVSLQGEFQRKLYKELVKNYNPLERPVANDSQPLTVYFSLSLLQIMDVDEKNQVLTTNIWLQMSWTDHYLQWNVSEYPGVKTVRFPDGQIWKPDILLYNSADERFDATFHTNVSVNSSGHCQYLPPGIFKSSCPMDLKNFPMDVQTCKLKFGSWDYGGWSLDLQMQEADISGYIPNGEWDLVGIPGKRSERFYECCKEPYPDVTFTVTMRRRMGYYLIQMYIPSLLIVILSWISFWINMDAAPARVGLGITTVLTMTTQSSGSRASLPKVSYVKAIDIWMAVCLLFVFSALLEYAAVNFVSRQHKELLRFRRKRRHHKSPMLNLFQEDEAGEGRFNFSAYGMGPACLQAKDGISVKGANNSNTTNPPPAPSKSPEEMRKLFIQRAKKIDKISRIGFPMAFLIFNMFYWIIYKIVRREDVHNQ
# modifications: synthetic sequence of chimeric LGIC
# Tested on: engineered chimeric receptor SEQ ID NO: 33 and its mutants (human α7-nAChR ligand binding domain / human GlyRα1 ion pore domain) in Lenti-X 293T cells
# Experiment: YFP fluorescence quenching anion reporter plate reader assay (percent quench, EC50)
# Type: cell-based
# Settings: for YFP fluorescence quenching using CNL001 (percent quench): receptor named in row; for YFP fluorescence quenching using Facinicline, 30 nM fac: ligand Facinicline 30 nM; for YFP fluorescence quenching using Facinicline, 300 nM fac: ligand Facinicline 300 nM; for YFP fluorescence quenching using Facinicline, 10 uM fac: ligand Facinicline 10 uM; for YFP fluorescence quenching using Facinicline, 30 uM fac: ligand Facinicline 30 uM; for YFP fluorescence quenching using TC-6987, 1 uM tc6987: ligand TC-6987 1 uM; for YFP fluorescence quenching using TC-6987, 10 uM tc6987: ligand TC-6987 10 uM; for YFP fluorescence quenching using TC-6987, 500 uM tc6987: ligand TC-6987 500 uM; for YFP fluorescence quenching using Varenicline, 3 nM var: ligand Varenicline 3 nM; for YFP fluorescence quenching using Varenicline, 30 nM var: ligand Varenicline 30 nM; for YFP fluorescence quenching using Varenicline, 300 nM var: ligand Varenicline 300 nM; for YFP fluorescence quenching using Varenicline, 500 nM var: ligand Varenicline 500 nM; for YFP fluorescence quenching using Varenicline, 1 uM var: ligand Varenicline 1 uM
# In short: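 Lenti-X 293T cells co-expressing an anion-quenchable YFP were transiently transfected with receptor DNA, then ligand was added in NaI-substituted buffer (pH 7.2) after 30 min at 37 °C. Fluorescence was read about 2 min; percent quench = mean of last 10 s over 15 s pre-ligand baseline.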
# [1] = 1 nM CNL001, first column so headed
# [2] = 1 nM CNL001, second column so headed
# [3] = 1 nM brd (TC-5619/Bradanicline)
# [4] = 3 nM brd (TC-5619/Bradanicline)
# [5] = 10 nM CNL001, first column so headed
# [6] = 10 nM CNL001, second column so headed
# [7] = 10 nM brd (TC-5619/Bradanicline)
# [8] = 50 nM CNL001, first column so headed
# [9] = 50 nM CNL001, second column so headed
# [10] = 100 nM CNL001, first column so headed
# [11] = 100 nM CNL001, second column so headed
# [12] = 100 nM brd (TC-5619/Bradanicline)
# [13] = 1 uM CNL001, first column so headed
# [14] = 1 uM CNL001, second column so headed
# [15] = 1 uM brd (TC-5619/Bradanicline)
molecule,measurement,setting,value
B1,YFP fluorescence quenching using CNL001 (percent quench),[1],−8.914%
same,YFP fluorescence quenching using CNL001 (percent quench),[2],−14.319%
same,YFP fluorescence quenching using TC-5619/Bradanicline (percent quench),[3],−13.45%
same,YFP fluorescence quenching using TC-5619/Bradanicline (percent quench),[4],−0.64%
same,YFP fluorescence quenching using CNL001 (percent quench),[5],−1.444%
same,YFP fluorescence quenching using CNL001 (percent quench),[6],4.393%
same,YFP fluorescence quenching using TC-5619/Bradanicline (percent quench),[7],37.3%
same,YFP fluorescence quenching using TC-5619/Bradanicline (percent quench),30 nM brd (TC-5619/Bradanicline),76.36%
same,YFP fluorescence quenching using CNL001 (percent quench),[8],11.897%
same,YFP fluorescence quenching using CNL001 (percent quench),[9],11.434%
same,YFP fluorescence quenching using ABT-126 (percent quench),50 nM abt (ABT-126),8.23%
same,YFP fluorescence quenching using CNL001 (percent quench),[10],12.719%
same,YFP fluorescence quenching using CNL001 (percent quench),[11],16.053%
same,YFP fluorescence quenching (percent quench),100 nM CNL002,−14.92%
same,YFP fluorescence quenching using ABT-126 (percent quench),100 nM abt (ABT-126),55.53%
same,YFP fluorescence quenching using AZD-0328 (percent quench),100 nM azd0328,−6.57%
same,YFP fluorescence quenching using TC-5619/Bradanicline (percent quench),[12],72.72%
same,YFP fluorescence quenching using ABT-126 (percent quench),300 nM abt (ABT-126),74.82%
same,YFP fluorescence quenching using AZD-0328 (percent quench),300 nM azd0328,−4.84%
same,YFP fluorescence quenching using TC-5619/Bradanicline (percent quench),300 nM brd (TC-5619/Bradanicline),75.47%
same,YFP fluorescence quenching using ABT-126 (percent quench),500 nM abt (ABT-126),77.39%
same,YFP fluorescence quenching using CNL001 (percent quench),[13],14.077%
same,YFP fluorescence quenching using CNL001 (percent quench),[14],15.495%
same,YFP fluorescence quenching (percent quench),1 uM CNL002,−0.85%
same,YFP fluorescence quenching using ABT-126 (percent quench),1 uM abt (ABT-126),77.77%
same,YFP fluorescence quenching using TC-5619/Bradanicline (percent quench),[15],78.73%
same,YFP fluorescence quenching using ABT-126 (percent quench),3 uM abt (ABT-126),69.33%
same,YFP fluorescence quenching using ABT-126 (percent quench),10 uM abt (ABT-126),74.79%
same,YFP fluorescence quenching (percent quench),10 uM ach (acetylcholine),−5.43%
same,YFP fluorescence quenching (percent quench),30 uM CNL002,29.62%
same,YFP fluorescence quenching using ABT-126 (percent quench),30 uM abt (ABT-126),75.61%
same,YFP fluorescence quenching using AZD-0328 (percent quench),30 uM azd0328,81.64%
same,YFP fluorescence quenching using ABT-126 (percent quench),50 uM abt (ABT-126),75.72%
same,YFP fluorescence quenching using ABT-126 (percent quench),100 uM abt (ABT-126),78.52%
same,YFP fluorescence quenching (percent quench),100 uM ach (acetylcholine),17.14%
same,YFP fluorescence quenching (percent quench),1 mM ach (acetylcholine),78.84%
same,YFP fluorescence quenching (percent quench),3 mM ach (acetylcholine),78.55%
same,"YFP fluorescence quenching using Facinicline, 30 nM fac",,−10.93
same,"YFP fluorescence quenching using Facinicline, 300 nM fac",,−5.82
same,"YFP fluorescence quenching using Facinicline, 10 uM fac",,60.97
same,"YFP fluorescence quenching using Facinicline, 30 uM fac",,57.77
same,"YFP fluorescence quenching using TC-6987, 1 uM tc6987",,62.82
same,"YFP fluorescence quenching using TC-6987, 10 uM tc6987",,78.66
same,"YFP fluorescence quenching using TC-6987, 500 uM tc6987",,70.35
same,"YFP fluorescence quenching using Varenicline, 3 nM var",first column,7.776
same,"YFP fluorescence quenching using Varenicline, 3 nM var",second column,−2.964
same,"YFP fluorescence quenching using Varenicline, 30 nM var",first column,−5.568
same,"YFP fluorescence quenching using Varenicline, 30 nM var",second column,3.024
same,"YFP fluorescence quenching using Varenicline, 300 nM var",first column,2.815
same,"YFP fluorescence quenching using Varenicline, 300 nM var",second column,3.06
same,"YFP fluorescence quenching using Varenicline, 500 nM var",first column,1.766
same,"YFP fluorescence quenching using Varenicline, 500 nM var",second column,2.819
same,"YFP fluorescence quenching using Varenicline, 1 uM var",first column,1.844
same,"YFP fluorescence quenching using Varenicline, 1 uM var",second column,−4.059
B2,YFP fluorescence quenching using CNL001 (percent quench),[1],23.438%
same,YFP fluorescence quenching using CNL001 (percent quench),[2],28.59%
same,YFP fluorescence quenching using TC-5619/Bradanicline (percent quench),[3],−1.13%
same,YFP fluorescence quenching using TC-5619/Bradanicline (percent quench),[4],−3.83%
same,YFP fluorescence quenching using CNL001 (percent quench),[5],56.882%
same,YFP fluorescence quenching using CNL001 (percent quench),[6],56.777%
same,YFP fluorescence quenching using TC-5619/Bradanicline (percent quench),[7],−3.78%
same,YFP fluorescence quenching using TC-6683 (percent quench),30 nM TC-6683,−22.464%
same,YFP fluorescence quenching using CNL001 (percent quench),[8],65.044%
same,YFP fluorescence quenching using CNL001 (percent quench),[9],67.373%
same,YFP fluorescence quenching using ABT-126 (percent quench),50 nM abt (ABT-126),−11.96%
same,YFP fluorescence quenching using CNL001 (percent quench),[10],68.666%
same,YFP fluorescence quenching using CNL001 (percent quench),[11],70.357%
same,YFP fluorescence quenching (percent quench),100 nM CNL002,14.26%
same,YFP fluorescence quenching using ABT-126 (percent quench),100 nM abt (ABT-126),−10.72%
same,YFP fluorescence quenching using AZD-0328 (percent quench),100 nM azd0328,−9.32%
same,YFP fluorescence quenching using TC-5619/Bradanicline (percent quench),[12],−2.03%
same,YFP fluorescence quenching using TC-6683 (percent quench),300 nM TC-6683,−23.976%
same,YFP fluorescence quenching using ABT-126 (percent quench),300 nM abt (ABT-126),11.65%
same,YFP fluorescence quenching using AZD-0328 (percent quench),300 nM azd0328,4.94%
same,YFP fluorescence quenching using CNL001 (percent quench),[13],73.019%
same,YFP fluorescence quenching using CNL001 (percent quench),[14],73.527%
same,YFP fluorescence quenching (percent quench),1 uM CNL002,45.55%
same,YFP fluorescence quenching using ABT-126 (percent quench),1 uM abt (ABT-126),−3.06%
same,YFP fluorescence quenching using TC-5619/Bradanicline (percent quench),[15],1.68%
same,YFP fluorescence quenching using TC-6683 (percent quench),3 uM TC-6683,−24.897%
same,YFP fluorescence quenching (percent quench),10 uM ach (acetylcholine),−11.3%
same,YFP fluorescence quenching (percent quench),30 uM CNL002,64.93%
same,YFP fluorescence quenching using TC-6683 (percent quench),30 uM TC-6683,−20.474%
same,YFP fluorescence quenching using AZD-0328 (percent quench),30 uM azd0328,60.61%
same,YFP fluorescence quenching using TC-6683 (percent quench),100 uM TC-6683,−22.253%
same,YFP fluorescence quenching (percent quench),100 uM ach (acetylcholine),−27.53%
same,YFP fluorescence quenching (percent quench),1 mM ach (acetylcholine),2.84%
same,YFP fluorescence quenching (percent quench),3 mM ach (acetylcholine),14.65%
same,"YFP fluorescence quenching using Facinicline, 30 nM fac",,−23.44
same,"YFP fluorescence quenching using Facinicline, 300 nM fac",,2.75
same,"YFP fluorescence quenching using Facinicline, 10 uM fac",,69.71
same,"YFP fluorescence quenching using Facinicline, 30 uM fac",,61.44
same,"YFP fluorescence quenching using TC-6987, 1 uM tc6987",,−20.99
same,"YFP fluorescence quenching using TC-6987, 10 uM tc6987",,−27.62
same,"YFP fluorescence quenching using TC-6987, 500 uM tc6987",,−24.22
